# US20230357367A1
# Changes are numbered by the printed parent chain. Where two headings read alike, the source gives them in different places.
# B1: AB-1 Fab (Fab, V domains shown)
# VH: EVQLVESGAEVKKPGESLKISCKGSGYTFTRYWIGWVRQMPGKGLEWMGIIYPGDSDVRYSPSFQGHVTISADKSISTAYLQWNSLKASDTAMYYCARLPQYCSKGVCYRWFDPWGQGTLVTVSS
# VL: EIVLTQSPSSVSASVGDRVTITCRASQGISSWLAWYQQKPGKAPKLLIYAASSLQSGVPSRFSGSGSGTDFTLTISSLQPEDFATYYCQQGHSFPYTFGQGTNLEIK
# B2: Reference Antibody Fab (Fab, V domains shown)
# VH: B1 VH with V58T, K105N, Y109Q
# VL: B1 VL with H92N
# B3: AB-1 (antibody, V domains shown)
# VH: B1 VH
# VL: B1 VL
# B4: Reference Antibody (antibody, V domains shown)
# VH: B1 VH with V58T, K105N, Y109Q
# VL: B1 VL with H92N
# Assays:
# [1] = target: SARS-CoV-2 spike S2 peptide 1143-1162 (stem helix region), biotinylated (SARS-CoV-2); assay: SPR, Fab over captured biotin-peptide, 25 C
# [2] = target: T1, SARS-CoV-2 spike S2 peptide 1153-1167, biotinylated (SARS-CoV-2); assay: SPR, Fab over captured biotin-peptide, 25 C
# [3] = target: T2, SARS-CoV-2 spike S2 peptide 1149-1163, biotinylated (SARS-CoV-2); assay: SPR, Fab over captured biotin-peptide, 25 C
# [4] = target: T3, SARS-CoV-2 spike S2 peptide 1149-1167 (C-terminal end of the stem helix), biotinylated (SARS-CoV-2); assay: SPR, Fab over captured biotin-peptide, 25 C
# [5] = target: T3, SARS-CoV-2 spike S2 peptide 1149-1167 …; assay: SPR, Fab over captured biotin-peptide, 25 C; remark: listed apart in the source
# [6] = target: HIV-1 Env peptide (negative control 15-mer), biotinylated (HIV-1); assay: DELFIA, IgG titrated on captured biotin-peptide; set-up: unit not given beside the values
# [7] = target: SARS-CoV-2 spike S2 peptide 1157-1171, biotinylated (SARS-CoV-2); assay: DELFIA, IgG titrated on captured biotin-peptide; set-up: unit not given beside the values
# [8] = target: SARS-CoV-2 spike S2 peptide 1133-1147, biotinylated (SARS-CoV-2); assay: DELFIA, IgG titrated on captured biotin-peptide; set-up: unit not given beside the values
# [9] = target: SARS-CoV-2 spike S2 peptide 1137-1151, biotinylated (SARS-CoV-2); assay: DELFIA, IgG titrated on captured biotin-peptide; set-up: unit not given beside the values
# [10] = target: T1, SARS-CoV-2 spike S2 peptide 1153-1167, …; assay: DELFIA, IgG titrated on captured biotin-peptide; set-up: unit not given beside the values
# [11] = target: T2, SARS-CoV-2 spike S2 peptide 1149-1163, …; assay: DELFIA, IgG titrated on captured biotin-peptide; set-up: unit not given beside the values
# [12] = target: T3, SARS-CoV-2 spike S2 peptide 1149-1167 …; assay: DELFIA, IgG titrated on captured biotin-peptide; set-up: unit not given beside the values
binder,measurement,setting,value
B1,Kd,[1],12.3 nM
same,koff,[1],0.037 s⁻¹
same,kon,[1],3e+06 M⁻¹ s⁻¹
same,Kd,[2],111 nM
same,koff,[2],0.0774 s⁻¹
same,kon,[2],697000 M⁻¹ s⁻¹
same,Kd,[3],83.1 nM
same,koff,[3],0.146 s⁻¹
same,kon,[3],1.76e+06 M⁻¹ s⁻¹
same,Kd,[4],0.9 nM
same,koff,[4],0.00241 s⁻¹
same,kon,[4],2.61e+06 M⁻¹ s⁻¹
same,Kd,[5],0.925 nM
B2,Kd,[2],311 nM
same,koff,[2],0.0535 s⁻¹
same,kon,[2],172000 M⁻¹ s⁻¹
same,Kd,[3],244 nM
same,koff,[3],0.0663 s⁻¹
same,kon,[3],272000 M⁻¹ s⁻¹
same,Kd,[4],5.4 nM
same,koff,[4],0.00498 s⁻¹
same,kon,[4],929000 M⁻¹ s⁻¹
same,Kd,[5],5.36 nM
B3,AUC,[6],9860
B4,AUC,[7],6010
same,AUC,[6],16100
same,AUC,[8],3260
same,AUC,[9],5050
same,AUC,[10],3.12e+06
same,AUC,[11],3.26e+06
same,AUC,[12],3.05e+06
